From paper PMC12455602

Key:
[1] = target: SscR^Ac (RSS-sensitive transcription factor in copper stress response), MarR family transcriptional regulator of Acidithiobacillus caldus (Acidithiobacillus caldus); experiment: SEC
[2] = target: SscR^Ac after H2Sn treatment (persulfidated SscR^Ac) (Acidithiobacillus caldus); experiment: SEC

Row | stoichiometry N [1] | stoichiometry N [2] | Substance
1 | 4 |  | SscR^Ac (RSS-sensitive transcription factor in copper stress response), MarR family transcriptional regulator of Acidithiobacillus caldus (natural protein)
2 |  | 4 | SscR^Ac after H2Sn treatment (persulfidated SscR^Ac) (natural protein)
